In patent US20030180895A1:

Assays:
Assay in all cases: cell-based or functional assay
[1] = target: Bacillus subtilis xylanase A mutant D11F (Bacillus subtilis) (UniProt P18429)
[2] = target: Bacillus subtilis xylanase A mutant T123Y (Bacillus subtilis) (UniProt P18429)
[3] = target: Bacillus subtilis xylanase A mutant N29K (Bacillus subtilis) (UniProt P18429)
[4] = target: Bacillus subtilis xylanase A mutant R122F (Bacillus subtilis) (UniProt P18429)
[5] = target: Bacillus subtilis xylanase A mutant Q175S (Bacillus subtilis) (UniProt P18429)
[6] = target: Bacillus subtilis xylanase A mutant T124Y (Bacillus subtilis) (UniProt P18429)
[7] = target: Bacillus subtilis xylanase A mutant Y113K (Bacillus subtilis) (UniProt P18429)
[8] = target: Bacillus subtilis xylanase A mutant D121N (Bacillus subtilis) (UniProt P18429)
[9] = target: Bacillus subtilis xylanase A mutant R122A (Bacillus subtilis) (UniProt P18429)
[10] = target: Bacillus subtilis wild type xylanase A (Bacillus subtilis) (UniProt P18429)
[11] = target: Bacillus subtilis xylanase A mutant N32K (Bacillus subtilis) (UniProt P18429)
[12] = target: Bacillus subtilis xylanase A mutant D121K (Bacillus subtilis) (UniProt P18429)
[13] = target: Bacillus subtilis xylanase A mutant G120Y (Bacillus subtilis) (UniProt P18429)
[14] = target: Bacillus subtilis xylanase A mutant D119N (Bacillus subtilis) (UniProt P18429)
[15] = target: Bacillus subtilis xylanase A mutant G120F (Bacillus subtilis) (UniProt P18429)
[16] = target: Bacillus subtilis xylanase A mutant N114F (Bacillus subtilis) (UniProt P18429)
[17] = target: Bacillus subtilis xylanase A mutant Y113A (Bacillus subtilis) (UniProt P18429)
[18] = target: Bacillus subtilis xylanase A mutant Y113D (Bacillus subtilis) (UniProt P18429)
[19] = target: Bacillus subtilis xylanase A mutant D11K (Bacillus subtilis) (UniProt P18429)
[20] = target: Bacillus subtilis xylanase A mutant D11F/G34D (Bacillus subtilis) (UniProt P18429)
[21] = target: Bacillus subtilis xylanase A mutant D119K (Bacillus subtilis) (UniProt P18429)
[22] = target: Bacillus subtilis xylanase A mutant G13F (Bacillus subtilis) (UniProt P18429)
[23] = target: Bacillus subtilis xylanase A mutant N114K (Bacillus subtilis) (UniProt P18429)
[24] = target: Bacillus subtilis xylanase A mutant G34F (Bacillus subtilis) (UniProt P18429)
[25] = target: Bacillus subtilis xylanase A mutant R122D (Bacillus subtilis) (UniProt P18429)
[26] = target: Bacillus subtilis xylanase A mutant N114A (Bacillus subtilis) (UniProt P18429)
[27] = target: Bacillus subtilis xylanase A mutant D11N (Bacillus subtilis) (UniProt P18429)

## wheat endogenous xylanase inhibitor
[1]
  Relative inhibition, % at 1, 26 XIU/ml: 114%
  Relative inhibition, % at 3, 15 XIU/ml: 119%
  Relative inhibition, % at 6, 3 XIU/ml: 116%
  Relative inhibition, % at 12, 6 XIU/ml: 115%
[2]
  Relative inhibition, % at 1, 26 XIU/ml: 80%
  Relative inhibition, % at 3, 15 XIU/ml: 47%
  Relative inhibition, % at 6, 3 XIU/ml: 28%
  Relative inhibition, % at 12, 6 XIU/ml: 27%
[3]
  Relative inhibition, % at 1, 26 XIU/ml: 83%
  Relative inhibition, % at 3, 15 XIU/ml: 50%
  Relative inhibition, % at 6, 3 XIU/ml: 30%
  Relative inhibition, % at 12, 6 XIU/ml: 23%
[4]
  Relative inhibition, % at 1, 26 XIU/ml: 93%
  Relative inhibition, % at 3, 15 XIU/ml: 74%
  Relative inhibition, % at 6, 3 XIU/ml: 58%
  Relative inhibition, % at 12, 6 XIU/ml: 58%
[5]
  Relative inhibition, % at 1, 26 XIU/ml: 88%
  Relative inhibition, % at 3, 15 XIU/ml: 59%
  Relative inhibition, % at 6, 3 XIU/ml: 30%
  Relative inhibition, % at 12, 6 XIU/ml: 19%
[6]
  Relative inhibition, % at 1, 26 XIU/ml: 101%
  Relative inhibition, % at 3, 15 XIU/ml: 76%
  Relative inhibition, % at 6, 3 XIU/ml: 49%
  Relative inhibition, % at 12, 6 XIU/ml: 33%
[7]
  Relative inhibition, % at 1, 26 XIU/ml: 103%
  Relative inhibition, % at 3, 15 XIU/ml: 85%
  Relative inhibition, % at 6, 3 XIU/ml: 63%
  Relative inhibition, % at 12, 6 XIU/ml: 47%
[8]
  Relative inhibition, % at 1, 26 XIU/ml: 80%
  Relative inhibition, % at 3, 15 XIU/ml: 36%
  Relative inhibition, % at 6, 3 XIU/ml: 16%
  Relative inhibition, % at 12, 6 XIU/ml: 14%
[9]
  Relative inhibition, % at 1, 26 XIU/ml: 78%
  Relative inhibition, % at 3, 15 XIU/ml: 46%
  Relative inhibition, % at 6, 3 XIU/ml: 33%
  Relative inhibition, % at 12, 6 XIU/ml: 26%
[10]
  Relative inhibition, % at 1, 26 XIU/ml: 77%
  Relative inhibition, % at 3, 15 XIU/ml: 48%
  Relative inhibition, % at 6, 3 XIU/ml: 29%
  Relative inhibition, % at 12, 6 XIU/ml: 23%
[11]
  Relative inhibition, % at 1, 26 XIU/ml: 82%
  Relative inhibition, % at 3, 15 XIU/ml: 42%
  Relative inhibition, % at 6, 3 XIU/ml: 19%
  Relative inhibition, % at 12, 6 XIU/ml: 14%
[12]
  Relative inhibition, % at 1, 26 XIU/ml: 104%
  Relative inhibition, % at 3, 15 XIU/ml: 95%
  Relative inhibition, % at 6, 3 XIU/ml: 85%
  Relative inhibition, % at 12, 6 XIU/ml: 75%
[13]
  Relative inhibition, % at 1, 26 XIU/ml: 81%
  Relative inhibition, % at 3, 15 XIU/ml: 40%
  Relative inhibition, % at 6, 3 XIU/ml: 18%
  Relative inhibition, % at 12, 6 XIU/ml: 16%
[14]
  Relative inhibition, % at 1, 26 XIU/ml: 91%
  Relative inhibition, % at 3, 15 XIU/ml: 74%
  Relative inhibition, % at 6, 3 XIU/ml: 44%
  Relative inhibition, % at 12, 6 XIU/ml: 22%
[15]
  Relative inhibition, % at 1, 26 XIU/ml: 71%
  Relative inhibition, % at 3, 15 XIU/ml: 35%
  Relative inhibition, % at 6, 3 XIU/ml: 18%
  Relative inhibition, % at 12, 6 XIU/ml: 15%
[16]
  Relative inhibition, % at 1, 26 XIU/ml: 84%
  Relative inhibition, % at 3, 15 XIU/ml: 54%
  Relative inhibition, % at 6, 3 XIU/ml: 39%
  Relative inhibition, % at 12, 6 XIU/ml: 34%
[17]
  Relative inhibition, % at 1, 26 XIU/ml: 96%
  Relative inhibition, % at 3, 15 XIU/ml: 80%
  Relative inhibition, % at 6, 3 XIU/ml: 62%
  Relative inhibition, % at 12, 6 XIU/ml: 43%
[18]
  Relative inhibition, % at 1, 26 XIU/ml: 96%
  Relative inhibition, % at 3, 15 XIU/ml: 81%
  Relative inhibition, % at 6, 3 XIU/ml: 63%
  Relative inhibition, % at 12, 6 XIU/ml: 45%
[19]
  Relative inhibition, % at 1, 26 XIU/ml: 109%
  Relative inhibition, % at 3, 15 XIU/ml: 112%
  Relative inhibition, % at 6, 3 XIU/ml: 113%
  Relative inhibition, % at 12, 6 XIU/ml: 116%
[20]
  Relative inhibition, % at 1, 26 XIU/ml: 104%
  Relative inhibition, % at 3, 15 XIU/ml: 106%
  Relative inhibition, % at 6, 3 XIU/ml: 103%
  Relative inhibition, % at 12, 6 XIU/ml: 104%
[21]
  Relative inhibition, % at 1, 26 XIU/ml: 94%
  Relative inhibition, % at 3, 15 XIU/ml: 67%
  Relative inhibition, % at 6, 3 XIU/ml: 40%
  Relative inhibition, % at 12, 6 XIU/ml: 26%
[22]
  Relative inhibition, % at 1, 26 XIU/ml: 104%
  Relative inhibition, % at 3, 15 XIU/ml: 95%
  Relative inhibition, % at 6, 3 XIU/ml: 87%
  Relative inhibition, % at 12, 6 XIU/ml: 84%
[23]
  Relative inhibition, % at 1, 26 XIU/ml: 87%
  Relative inhibition, % at 3, 15 XIU/ml: 56%
  Relative inhibition, % at 6, 3 XIU/ml: 33%
  Relative inhibition, % at 12, 6 XIU/ml: 24%
[24]
  Relative inhibition, % at 1, 26 XIU/ml: 76%
  Relative inhibition, % at 3, 15 XIU/ml: 53%
  Relative inhibition, % at 6, 3 XIU/ml: 34%
  Relative inhibition, % at 12, 6 XIU/ml: 29%
[25]
  Relative inhibition, % at 1, 26 XIU/ml: 85%
  Relative inhibition, % at 3, 15 XIU/ml: 59%
  Relative inhibition, % at 6, 3 XIU/ml: 41%
  Relative inhibition, % at 12, 6 XIU/ml: 28%
[26]
  Relative inhibition, % at 1, 26 XIU/ml: 80%
  Relative inhibition, % at 3, 15 XIU/ml: 49%
  Relative inhibition, % at 6, 3 XIU/ml: 28%
  Relative inhibition, % at 12, 6 XIU/ml: 22%
[27]
  Relative inhibition, % at 1, 26 XIU/ml: 93%
  Relative inhibition, % at 3, 15 XIU/ml: 72%
  Relative inhibition, % at 6, 3 XIU/ml: 53%
  Relative inhibition, % at 12, 6 XIU/ml: 32%
